Measured values reported in US20170363644.

Molecular target: Aβ42 oligomers, P05067

B1: factor XII (FXII) (protein)
chain: IPPWEAPKEHKYKAEEHTVVLTVTGEPCHFPFQYHRQLYHKCTHKGRPGPQPWCATTPNFDQDQRWGYCLEPKKVKDHCSKHSPCQKGGTCVNMPSGPHCLCPQHLTGNHCQKEKCFEPQLLRFFHKNEIWYRTEQAAVARCQCKGPDAHCQRLASQACRTNPCLHGGRCLEVEGHRLCHCPVGYTGAFCDVDTKASCYDGRGLSYRGLARTTLSGAPCQPWASEATYRNVTAEQARNWGLGGHAFCRNPDNDIRPWCFVLNRDRLSWEYCDLAQCQTPTQAAPPTPVSPRLHVPLMPAQPAPPKPQPTTRTPPQSQTPGALPAKREQPPSLTRNGPLSCGQRLRKSLSSMTRVVGGLVALRGAHPYIAALYWGHSFCAGSLIAPCWVLTAAHCLQDRPAPEDLTVVLGQERRNHSCEPCQTLAVRSYRLHEAFSPVSYQHDLALLRLQEDADGSCALLSPYVQPVCLPSGAARPSETTLCQVAGWGHQFEGAEEYASFLQEAQVPFLSLERCSAPDVHGSSILPGMLCAGFLEGGTDACQGDSGGPLVCEDQAAERRLTLQGIISWGSGCGDRNKPGVYTDVAYYLAWIREHTVS
FXII autoactivation, chromogenic substrate assay with purified FXII: Aβ42 oligomers can directly induce FXII autoactivation | FXII cleavage in human plasma (Western blot: FXII zymogen and FXIIa heavy chain): plasma incubated with Aβ42 had decreased FXII zymogen and increased FXIIa heavy chain compared to incubation with vehicle
